Measurements reported in the nanobody polyreactivity screen of Harvey et al. (2022).

Assay: yeast display, Sf9 membrane polyspecificity reagent, FACS + sequencing; frameworks hold sequencing errors
Method in brief: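 Using colony PCR, genes from sorted yeast display clones were amplified, then sequenced on MiSeq at 2 × 250 and filtered by CDR length. The clones had been stained with 10% biotinylated, detergent-solubilized Sf9 membrane reagent for 1 hour at 4 °C and sorted by FACS into low and high (top ~1%) gates on anti-HA and streptavidin fluorescence. Polyreactivity labels come from the gate of origin.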

Row | Sequence | polyreactivity (PSR sort gate)
1 | QVQLVESGGGLVQAGGSRRLICAASGSIFGWYAMGWYRPAHGKERELVAAISQSGGRTYYADSVKGRFTISRDNAKNTVYLQMNSLKPEDTAVYYCAAYYTSYWGYDYDYWGQGTQVTVSS | low polyreactivity
2 | QVQLVESGGGLVQAGGSRRLSCAASGLIFVRYAMGWYRQAPGKERELVATISSRGASTYYADSVKGRFTISRDNAKNTVYFQMNSLKPEDTAVYYCNAGRLRRSYKPYDYWGQGTQVTVSS | high polyreactivity
3 | QVQLVESGGGLVQAGGSRRLSCAASGLIMDYYAMGWYRQAPGKERELVAAISSGGTDTYYADSVKGRFTITRDNAKNTVYLQMNSLKPEDTAVYYCAADSYWSAYDYWGQGTQVTVSS | low polyreactivity
4 | QVQLVESGGGLVQAGGSRRLSCAASGSTFYGYAMGWYRQAPGKEREFVAAITTSGGSTYYADSVKGRFTISRDNAKNTVYLQMNSLKPEDTAVYYCAADGFYYDDGYWGQGTQVTVSS | low polyreactivity
5 | QVQLVESGGGLVQAGGSRRVSCAASGCIFGYNDMGWSRQAPGKDRELDASITWGGGRTRYADSVKGRFTISRDNAKNTVDLHMNSLKPEDTAVYYGAADKRSYSYVRPPRNQEDYWGQGTQVTVSS | low polyreactivity
6 | QVQLVESGGGLVQAGGSRSLSCAASGSILWYYAMGWYRQAPGKERELVADITARGVGTYYADSVKGRFTISRDNAKNTVYLQMNSLKPEDTAVYYCNVETYSFYTLYVTYDYWGQGTQVTVSS | low polyreactivity
7 | QVQLVESGGGLVQAGGSVRLSCAASGFIFTDNAMGWYRQPPLKERELVAAINLSGTRTYYADSVKGRFTISLDNAKNTVSLQMNSLKPEDTAVYYCNISEDYSYEYWGQGTQVTVSS | low polyreactivity
8 | QVQLVESGGGLVQAGGSVRLSCAASGFIFYDYVMGWYRQAPGKERELVAAISASGGSTYYADSVKGRFTISRDYAKNTVYLQMNSLKPEDTAVYYCAAPRYYYYWRDYWGQGTQVTVSS | high polyreactivity
9 | QVQLVESGGGLVQAGGSVRLSCAASGLIFTIYAMGWYRQAPGKERELVAVITWSGGSTYYADSVKGRFTISRDNAKNTVYLQMYSLKPEDTAVYYCAVEWAYPYWYTYYLEDYWGQGTQVTVSS | low polyreactivity
10 | QVQLVESGGGLVQAGGSVRLSCAASGRIFSRKAMRWYIQAPGKERELVAAISRSGTSTYYADSVKGRFTISRDNAKNTVYLQMNSLKPEDNAVYYCAADYPAVISIRRYDYWGQGTQVTVSS | low polyreactivity
11 | QVQLVESGGGLVQAGGTLLLSGAASGSIFGYNAMGWYRQAPGKERELVAAIRSSDSRTHYADSVKGRFRISRDNAKNTVYLQMNSLKPEDTAVYYCAAVKRRPGHYLYDYWGQGTQVTVSS | low polyreactivity
12 | QVQLVESGGGLVQAGGTLRISCAASGRTFRKYAMGWYRQAPGKERELVAAISWSGGSTYYANSVKGRFTISRDNAKNTVYLQMNSLKPEDTAVYYCAAVPVHTGSLYWGFTTGYDYWGQGTQVTVSS | low polyreactivity
13 | QVQLVESGGGLVQAGGTLRLSCAACGFTFSSYAMGWYRQAPGKERELVAAITYRGGSTYYADSVKGRFTISRDNAMNNVYLQMNSLKPEDTAVYYCAARWGYRMYWGQGTQVTVSS | high polyreactivity
14 | QVQLVESGGGLVQAGGTLRLSCAACGSTYYRNAMGWYRPAPGKERELVATITRSGGSTYYADSVKGRFTISRDNAKNTVYLQMNSLKPEDTAVYYCAARGWYKSDYWGQGTQVTVSS | low polyreactivity
15 | QVQLVESGGGLVQAGGTLRLSCAASGFIIPGYAMGCYRQAPGKERELVAAISGRGGSTYYADSVKGRFTISRDNAKNTVYLQMNSLKPEDTAVYYCNADWQDDLAGYDVDYWGQGTQVTVSS | low polyreactivity
16 | QVQLVESGGGLVQAGGTLRLSCAASGFTFFSNAMGWYRQPPGKERELVAAIPTNGGSTYYADSVKGRFTISRDNAMNTVYLQMNSLKPEDTALYYCAAEYTVGGPYSYDFWGQGTQVTVSS | low polyreactivity
17 | QVQLVESGGGLVQAGGTLRLSCAASGIIFYSNAMGWYRQAPGKEWELVAGISKSGGSTYYADSVKGRFTISRDNAKNNVYLHMNSLKPEDTAVYYCAVRGGGRYRSWGYDYWGQGTQVTVSS | high polyreactivity
18 | QVQLVESGGGLVQAGGTLRLSCAASGIIIGSYAMGWYRQAPGKERELVAAITNGARTNYADSVKGRFTISRDNAKNTVYLQMNSLKPEDTAVYYCAADNYFDWYWLFFEYDYWGQGTQVTVSS | high polyreactivity
19 | QVQLVESGGGLVQAGGTLRLSCAASGRIFDGNTMGWDRQAPGKERELVAAIRSRGDRTYYADSVKGRFTISRDNAKNTVYLQMNSLKPEDTAVYYCAAQPSWYKPKGSWFEKGLYDYWGQGTQVTVSS | low polyreactivity
20 | QVQLVESGGGLVQAGGTLRLSCAASGRIFSGYVMGWYRPAPGKERELVAVISRSGGSTYYADSVKGRFTISRDNAKNTVYLQMNSLKPEDTAVDYCAAKHIDGSRGYDYWGQGTQVTVSS | low polyreactivity
21 | QVQLVESGGGLVQAGGTLRLSCAASGRIFSKNAMGWYRQAPGKERELVAAMSSSGTSTYYADSVKGRFTISRDNAKNTVYLQINSLKPEDTAVYYCAARVSLTTYSYYSWGQGTQLTVSS | high polyreactivity

Row | Sequence | polyreactivity (PSR sort gate)
22 | QVQLVESGGGLVQAGGTLRLSCAASGRIFWAYAMGRYRQAPGKERELVAAITRSGGYTRYADSVKGRFTISRDNAKNTVYLLMNSLKPEDTAVYYCNAYAPRQLYGYDYWGQGSQVTVSS | high polyreactivity
23 | QVQLVESGGGLVQAGGTLRLSCAASGRTFNYAMGWYRQAPGKERELVATITSGGSTNYADSVKGRFTISRDNAKNTVYLQLNSLKPEDTAVYYCNRDIPPGNYYKALYYYWGQGTQVTVSS | low polyreactivity
24 | QVQLVESGGGLVQAGGTLRLSCAASGRTFYYYTMGWYRQAPGKERDLVAAISSTGNTYYADSVKGRFTISRDNAKNSVYLQMNSLNPADTALYYCAASGGSSDAYWGQGTQVTVSS | high polyreactivity
25 | QVQLVESGGGLVQAGGTLRLSCAASGSIFARYAMGCSIQAPGKERELVAAISGSGASTYYADSVKGRFTISRDNAKNTVYLQMNSLKPEDTAVYYCARPFLRRPTYRFETGYGYWGQGTQVTVSS | high polyreactivity
26 | QVQLVESGGGLVQAGGTLRLSCAASGSIFPYYVMGWYRQAPGKERELVAAISTSDGSTYADSVKGRFTISRDNAKNTVYFQMNSLKPEDTAVYYCAVANVYYEGYDYWGQGTQVTVSS | low polyreactivity
27 | QVQLVESGGGLVQAGGTLRLSCAASGSTFAVNAMGWYRQPPGKERELVAAISRSGGSTYYADSVKGRFTISRDNAKNTDYLQMKSLKPEDTAFYYCNTRTPYWFKSDYWGQGTQVTVSS | low polyreactivity
28 | QVQLVESGGGLVQAGGTLRLSCAASGSTFRGYAMGWYRQAPGKERELVAAIRRAGSTNYAESVKGRFTISRDNAKNTVYLQMNSLKPEDTAVYYFADSKCLWYGASVSQKKAGMDSWGQGTQVTVSS | low polyreactivity
29 | QVQLVESGGGLVQAGGTLRLSCAASGSTFRYYAMGWYRQAPGKERELVATITSDGSTNYADSVKGRFTFSRDNAKNTVYLQLNSLKPEDTAVYYCNARCRRYKSSNSWGQGTQVTVSS | high polyreactivity
30 | QVQLVESGGGLVQAGGTLRLSCAASGSTFVGYAMGWYRQAPGKERELVAAISSSGSTNYADSVKGRFTISRDNAKNTVYLQMNSLKPEDTAVYYCAALYSYFWLIIDYGYWGQGTQVTVSS | low polyreactivity
31 | QVQLVESGGGLVQAGGTLRLSCAASGSTLYPYDMGWYRQAPGKERELVAAIDSGGSTNYADSVKGRFTISRDNAKNTVYLQMNRLKPEDTAVYYCAADASGENDYWGQGTQVTVSS | low polyreactivity
32 | QVQLVESGGGLVQAGGTLRLSCAASGYTSSLNAMRWYRQAPGKERELVARITTDGTSTYYADSVKGRFTISRDNAKNTVYLQMNSLKPEDTAVYYCNARYPAYGVRSWYPYAYYYWGQGTQVTVSS | low polyreactivity
33 | QVQLVESGGGLVQAGGTLRLSCADSGSTFTYNAMGWYRQAPGKERELVASISSGTTTYYADSVKGRFTISRDNAKNTVYLQMNSLKPEDTAVYYCAVDSWSRVQGWLAHNYDYWGQGTQVTVSS | low polyreactivity
34 | QVQLVESGGGLVQAGGTLRLSCAPSGRTFKRYAMGWYRQAPGKERELVAAISSGGSTYADSVKGRFTISRDNAKNTVYLHMNSLKTEDTAVYYCAARYRSYPERYNYWGQGTQGTVSS | high polyreactivity
35 | QVQLVESGGGLVQAGGTLRLSCAPSGSTFVPNAMGWYRQAPGKERELVATITSSSSRTYYADSVKGRFTISRDNAKNTVYLQMNSLKPEDTAVYYCAADGRRVVARYDYWGQGTQVTVSS | high polyreactivity
36 | QVQLVESGGGLVQAGGTLRLSCDASGSIFFWKAMGWYRQAPGKERELVAAISYTDGSTYYADSVKGRFTIPRDNAKNTVYLLMNSLKPEDTAVYYCAAAITPSYNGSEYDYWGQGTQVTVSS | low polyreactivity
37 | QVQLVESGGGLVQAGGTLRLSCSASGSIFGIYAMGGYRHAPGKESELVAAITSGGSTYADSVKGRFTISRDNAKNTVYLQMNSLKPVDTAVYFCAAYGRDIGGYDYWGQGSQVTVSS | low polyreactivity
38 | QVQLVESGGGLVQAGGTLRLSSAPTGSNFSAYAKGWYREAPGKERELVAAISTSGYTNYADSVKGRFTISRDKALNTVYLQMNSLKPEDTAVSYCAADRDYGDGTAGYGYEFDYWGQGTQVTVSS | low polyreactivity
39 | QVQLVESGGGLVQAGGTLRLTCAASGTFYGNNMGWYIHAPGKQRELVATIRRSTGSTYYADSVKGRFTISRDNAKNTVYLQMNSLKPEDTAVYYCAAEIYSYYRLYWYDYRGQGTQVTVSS | high polyreactivity
40 | QVQLVESGGGLVQAGGTLSLSCAATGRNFYCYAMGWYRQAHGKERELVAAINWSGGTTYYADSVKGRFTISRDNAKNTVYLQMNSLKPEDTAVYYSAADRILEMGYWGQGTQVTVSS | low polyreactivity
41 | QVQLVESGGGLVQAGGTRRLSCAASGSIFYYYAMGWYRQAPGKERELVAAINRGVGSTFYADSVKGRFTISRDNAKNTVYLQMNSLKPEDTAVYYCAVELNQVTPGLGYITLDYWGQGTQVTVSS | low polyreactivity
